Test results published in the supplement of paper PMC7125110.
± gives the standard error. This sample holds only a part of the variants without activity.

B1: glmS ribozyme (parent)
chain: AUAAAAGCGCCAGAACUACAGAAAUGUAGUUGACGAGGAGGAGGUUUAUCGAAUUUUCGGCGGAUGCCUCCAAA

Variants of: B1
Assay: self-cleavage kobs at 10000 uM GlcN6P; higher = faster cleavage; RNA array
Settings: with glucosamine-6-phosphate
Method in brief: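 Glucosamine-6-phosphate (40 μM to 10 mM) in HEPES/KCl/Mg(OAc)2 buffer was flowed over sequenced MiSeq chips, and tiles were imaged over ~14 h. Barcoded ribozyme variants there had been transcribed in situ by E. coli RNA polymerase and were tracked through a hybridised Cy3 probe at 37 °C. One- or two-exponential decay fits to per-tile medians, normalised to baseline and to non-cleaving reference variants, gave kobs. kcat and KM came from weighted Michaelis–Menten fits across concentrations.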

| Variant | self-cleavage kobs at 10000 uM GlcN6P [s⁻¹] |
| --- | --- |
| A42U U56C | 5.38e-05 ± 1.2e-05 |
| G29A G32U C70A | 4.82e-05 ± 1.8e-05 |
| G38U U56C | < 1e-05 |
| C34A A64G U69C | < 1e-05 |
| G38U G41A U45G U56A G59U | < 1e-05 |
| C58U G63C C70U | < 1e-05 |
| A33C U46C | 4.16e-05 ± 1.7e-05 |
| G40C G41A C50U | < 1e-05 |
| G38A U57C A64U | < 1e-05 |
| G59C G63C | < 1e-05 |
| G29C C61G C67G | < 1e-05 |
| A36U G51U C68G | 4.33e-05 ± 1.7e-05 |
| U49A U54C C67G | < 1e-05 |
| G41U U57C A64C | < 1e-05 |
| A36G A64C U65G | < 1e-05 |
| G41A A52U | 9.26e-05 ± 1.6e-05 |
| U31C G41U A53G | 0.000299 ± 8.8e-05 |
| U49C G51U C70G | < 1e-05 |
| G32C A36U G37A C61A C67U | 9.54e-05 ± 1.4e-05 |
| U30A U65A C71U | 0.000453 ± 8.5e-05 |

| Variant | self-cleavage kobs at 10000 uM GlcN6P [s⁻¹] |
| --- | --- |
| G29U G37A C67U | 5.27e-05 ± 1.5e-05 |
| U30G U31G U46C U65G | 5.94e-05 ± 2.6e-05 |
| U45G C58A G66U | 8.19e-05 ± 1.6e-05 |
| C50G G62C C70A | 0.000153 ± 4.6e-05 |
| G38U A39U A42C A48U | < 1e-05 |
| G32C A53G C67G | 3.72e-05 ± 1.3e-05 |
| G29C C34G G40C C70A | < 1e-05 |
| A52U G66C | 4.08e-05 ± 1.2e-05 |
| G41A U45C A53U | 0.000355 ± 8.4e-05 |
| A42C U49C U57A | < 1e-05 |
| A39U G43A U47C G59A C67U | < 1e-05 |
| G37U G38A C67U | < 1e-05 |
| U45C C50G U54A | < 1e-05 |
| G41U C67U | 2.83e-05 ± 1.1e-05 |
| G37C U55A | 4.97e-05 ± 1e-05 |
| G37C U55G | 3.62e-05 ± 8.4e-06 |
| G32U A53G C67G | 0.000238 ± 3.8e-05 |
| G29C G41C A42U | < 1e-05 |
| A48G U49G | 5.7e-05 ± 2.1e-05 |
| U55G G59C C70A | 0.000104 ± 2.7e-05 |

| Variant | self-cleavage kobs at 10000 uM GlcN6P [s⁻¹] |
| --- | --- |
| A48G G62C C70G | < 1e-05 |
| A52G U57G U65C | 6.98e-05 ± 1.2e-05 |
| G40A A64U | 2.07e-05 ± 9.5e-06 |
| A42G U46G U56C | 0.00095 ± 0.0002 |
| A33U A53U G59U | < 1e-05 |
| G43U G44U U65G | < 1e-05 |
| G29U G37A C71U | 0.000169 ± 4e-05 |
| A64G C70A | 3.24e-05 ± 9.8e-06 |
| A36C A52U C58U G63A | < 1e-05 |
| G32U U45G U46C C67A | 7.22e-05 ± 2e-05 |
| U45C U65G C70U | 0.000225 ± 6.1e-05 |
| A33U G44A G63U | < 1e-05 |
| G38A U46G U57G C58A | < 1e-05 |
| U31G G40U C67A | 6.16e-05 ± 1.3e-05 |
| C34U G38U G40U | < 1e-05 |
| G35C A48G G59U G60A | < 1e-05 |
| U46A U47G G66C | 0.000401 ± 9.3e-05 |
| U31A C34U G44A | < 1e-05 |
| A42U A48U U65C | < 1e-05 |
| A42C C50U C68A C70A | < 1e-05 |
